Results on 1 substance are retold here after PMC9523886.

Read-outs that look alike come from different tables or passages of the source.

What all share (test): FCCS
The target of experiment [1] is GFP-DscIA (Discoidin I, paralog A, fused with GFP) (D. discoideum).
The target is the same in experiment [2]. This is another data set of the same source.
The target is the same in experiment [3]. This is another data set of the same source.

What is called Kd is the equilibrium constant for the complex coming apart. Regarding “mCh-MyoII (mCherry-tagged Myosin II) (from UniProt P08799 1-2116) (natural protein)”, the Kd turned out to be 2800 nM in experiment [1], 2900 nM in experiment [2] and 1900 nM in experiment [3].
